# In patent US12006530B2, “Streptococcal proteases” (priority 2016, dated 2024):
# B1: IgdEagalactiae: IgdE isolated from S. agalactiae strain CCUG4208, SEQ ID NO: 3 (protein, listed as Streptococcus agalactiae)
# chain: NQNNIQETNLVEKNSEDKFIQELNRYKTEIPNFKGFNVWILGDKGYYKNLINLEEIKNIQATLKKERNEEYVFVKLNGKIAHDTTVFLMNKKHKLLKNIEEFKTITQKRLTERGKFPYDTVHSTFEIKDENFIMERLKSSGLSMGKPVDYMGVNGIPIYTKTLSIDNKFAFENNSKDSSYSSNINISEDKIKENDQKILDLIVKSGANNQNLTDEEKVIAFTKYIGEITNYDNEAYRARNVDTEYYRASDLFSVTERKLAMCVGYSVTAARAFNIMGIPSYVVSGKSPQGISHAAVRAYYNRSWHIIDITASTYWKNGNYKTTYSDFIKEYCIDGYDVYDPAKTNNRFKVKYMESNEAFENWIHNNGSKSMLFINESAALKDKKPKDDFVPVTEKEKNELIDKYKKLLSQIPENTQNPGEKNIRDYLKNEYEEILKKDNLFEHEHAEFKESLNLNESFYLQLKKEEKKPSDNLKKEEKPRENSVKERETPAENNDFVSVTEKNNLIDKYKELLSKIPENTQNPGEKNIRNYLEKEYEELLQKDKLFKHEYTEFTKSLNLNETFYSQLKEGEMKLSENPEKGETNTN
# B2: IgdEequi: IgdE isolated from S. equi strain ssp zooepidemicus #1, SEQ ID NO: 7 (protein, listed as Streptococcus equi)
# chain: MEAWKHGSMEAWKHGSMEAWKHGRTLCKGLLLGLACGAISMSLVVKSTIVVADDVRLSEQSTVILDNTVSNLISEVKDELAKNHQDALEIYILGEGSPKYSGVSPDRLGDYIKDYKPVRLNGKVIHGRAFFMMKKEDQLISTKEEYDRIIAERFSNLEKFDYPTIHYTFNAELKDKYPYLSLILKASGLSLSDSINLGSTLGINGVTIHTQHLRIDNQFAYRYNGEDYKQDSHITFDRFKKNDDKLKELIATSGANQEGLTDAQRVKAYVLYMANHVDYDWDATRYNPDYLIFCQASDLFALTERNKAMCIGFSTAAARGLNLLGIPSYVTYGKNRDGVAHATIRAFYDKKWRTLDVTGVGRGKYTEEHYDNLNTHDYKIFDLTKETNVDLDRGYMEIYKDFEDWILSHNTKELLFINQDANIRNKVAKDVFKYIQEAEKQSLIDKYNEFIIRTSALKAEFKTDRLKEIVGSLVSQAQEELENIKHIEVMTEDEKDQFEYTLRNLGVYYSQCESANQ
# Experiments:
# monoclonal human IgG4 = monoclonal human IgG4 (Homo sapiens, UniProt P01861); experiment: Cleavage of human IgG subclasses, SDS-PAGE; format: biochemical; details: 18 h, 37° C., reducing SDS-PAGE
# monoclonal human IgG4, sequence (P01861 1-327 isoform P01861-1): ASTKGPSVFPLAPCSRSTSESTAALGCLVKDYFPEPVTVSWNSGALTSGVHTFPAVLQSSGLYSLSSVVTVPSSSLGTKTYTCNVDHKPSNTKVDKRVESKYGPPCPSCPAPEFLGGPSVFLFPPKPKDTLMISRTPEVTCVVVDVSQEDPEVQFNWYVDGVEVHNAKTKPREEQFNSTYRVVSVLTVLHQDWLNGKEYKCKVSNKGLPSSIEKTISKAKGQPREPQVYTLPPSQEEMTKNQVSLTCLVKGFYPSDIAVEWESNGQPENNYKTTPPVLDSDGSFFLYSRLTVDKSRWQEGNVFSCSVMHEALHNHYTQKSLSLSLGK
# Experimental: (§1) (A) rIgdEagalactiae was incubated with polyclonal IgG of six different species for 18 h at 37° C. and analyzed by SDS-PAGE under reducing conditions. Degradation products are indicated by asterisks (*). Images of different gels have been used to create the figure. (B) rIgdEagalactiae was incubated with human or bovine serum for 18 h in 37° C. and analyzed by SDS-PAGE under reducing conditions. Degradation products are indicated by asterisks (*). (C) Western Blot with crude extracts of rIgdEagalactiae incubated with human and porcine serum for 18 h in 37° C. Membrane was treated with antibodies against human and porcine polyclonal IgG respectively. Degradation products are indicated by asterisks (*). (D) rIgdEagalactiae was incubated with subclasses of human IgG as well as human IgA and IgM for 18 h in 37° C. and analyzed by SDS-PAGE under reducing conditions. Degradation products are indicated by asterisks (*). Images of different gels have been used to create the figure.
# monoclonal human IgG3 = monoclonal human IgG3 (Homo sapiens, UniProt P01860); experiment: Cleavage of human IgG subclasses, SDS-PAGE; format: biochemical; details: 18 h, 37° C., reducing SDS-PAGE
# monoclonal human IgG3, sequence (P01860 1-377 isoform P01860-1): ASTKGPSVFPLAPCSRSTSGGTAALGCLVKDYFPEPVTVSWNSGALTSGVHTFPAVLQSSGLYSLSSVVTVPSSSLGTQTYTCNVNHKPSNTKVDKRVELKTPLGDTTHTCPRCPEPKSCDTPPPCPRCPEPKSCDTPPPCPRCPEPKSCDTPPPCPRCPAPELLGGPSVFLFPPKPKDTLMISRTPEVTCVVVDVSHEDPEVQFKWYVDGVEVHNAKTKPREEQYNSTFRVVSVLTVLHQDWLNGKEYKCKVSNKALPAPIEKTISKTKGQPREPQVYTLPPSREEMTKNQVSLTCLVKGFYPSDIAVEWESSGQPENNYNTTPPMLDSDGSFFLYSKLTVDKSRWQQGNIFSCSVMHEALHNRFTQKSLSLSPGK
# Experimental: as §1
# monoclonal human IgG1 = experiment: Cleavage of human IgG subclasses, SDS-PAGE; format: biochemical; details: 18 h, 37° C., reducing SDS-PAGE
# Experimental: as §1
# monoclonal human IgG2 = experiment: Cleavage of human IgG subclasses, SDS-PAGE; format: biochemical; details: 18 h, 37° C., reducing SDS-PAGE
# Experimental: as §1
# IgG = IgG degrading cysteine protease activity: specificity as summarised; format: biochemical; details: summary statement
# Description: Typically, polypeptides for use in accordance with the invention display immunoglobulin cysteine protease activity, and in particular IgG degrading cysteine protease activity. Preferably, the polypeptide cleaves IgG in the hinge region and more particularly in the hinge region of the heavy chain. Preferably, cleavage results in production of Fc and Fab fragments of IgG. Preferably the activity is specific for IgG. The IgG degrading cysteine protease activity may be determined by means of a suitable assay. For example, a test polypeptide may be incubated with IgG at a suitable temperature, such as 37° C. The starting materials and the reaction products may then be analysed by SDS PAGE to determine whether the desired IgG cleavage product is present. Typically this cleavage product is a 32 kDa fragment. Typically there is no further degradation of IgG after this first cleavage. The cleavage product may be subjected to N-terminal sequencing to verify that cleavage has occurred in the hinge region of IgG.
# The IgG degrading cysteine protease activity of the polypeptides is generally IgG-specific in that the polypeptides may not degrade other classes of Ig, namely IgM, and IgA, when incubated with these immunoglobulins under conditions that permit cleavage of IgG.
# porcine IgG = experiment: IgG cleavage by IgdE, SDS-PAGE; format: biochemical, pig; details: purified polyclonal IgG, reducing SDS-PAGE
# Experimental: (A) Schematic illustration of IgdE and the different rIgdE constructs with potential active site residues substitutions and the C-terminal truncation variant. The secretion signal peptide (residues 1-37) is marked in light grey, the transglutaminase domain is boxed and the potential active site residues and substitutions are indicated. (B) 3.3 μM porcine IgG was incubated for 16 h at 37° C. with soluble fractions of E. coli cells expressing different rIgdE constructs. The reaction was analyzed SDS-PAGE under reducing conditions. […] The weak protein band of 37 kDa is a contaminant present in lysate preparation and not related to IgdE activity.
# (§2) 0.5 mg/ml of porcine IgG (Sigma) in PBS or of other species (human, goat, cow, horse and mouse; all Sigma) were incubated with either crude extracts of induced E. coli carrying S. suis IgdE constructs mentioned above or 10 nM purified rIgdE for 16 h at 37° C. prior subjection to SDS-PAGE under either reducing or non-reducing conditions.
# (§3) Samples for SDS-PAGE were prepared with either reducing or non-reducing sample buffer and heated to 95° C. for 5 min. 12% SDS-PAGE was either stained with Coomassie blue (Sigma), Coomassie Fluor™ Orange Protein Gel Stain (Invitrogen) or blotted to Hybond-P PVDF membrane (GE Healthcare) for western blot analyses. Membranes were blocked with 5% dry milk powder in 0.1% PBS-Tween, followed by incubation with horse-radish peroxidase conjugated antibodies. Goat anti-pig IgG-HRP (Thermo Scientific) and goat anti-porcine IgM-HRP (Thermo Scientific) was diluted 1:25′000 and goat anti-porcine IgA-HRP (Thermo Scientific) was diluted 1:12′500. Membranes were thoroughly washed with 0.1% PBS-Tween prior to development with Amersham ECL Select Western blotting detection reagent (GE Healthcare) according to manufactures instruction and pictured by LAS4000 imaging system (Fujifilm).
# horse IgG = experiment: IgG cleavage by IgdE, SDS-PAGE; format: biochemical; details: purified polyclonal IgG, reducing SDS-PAGE
# Experimental: as §2, §3
# cow IgG = experiment: IgG cleavage by IgdE, SDS-PAGE; format: biochemical; details: purified polyclonal IgG, reducing SDS-PAGE
# Experimental: as §2, §3
# goat IgG = experiment: IgG cleavage by IgdE, SDS-PAGE; format: biochemical; details: purified polyclonal IgG, reducing SDS-PAGE
# Experimental: as §2, §3
# mouse IgG = experiment: IgG cleavage by IgdE, SDS-PAGE; format: biochemical; details: purified polyclonal IgG, reducing SDS-PAGE
# Experimental: as §2, §3
# IgG in human serum = experiment: Ig cleavage in human serum, anti-IgG Western blot; format: biochemical
# Experimental: as §1
# human serum IgG1 = target: T1, human serum IgG1 (Homo sapiens, UniProt P01857); experiment: Degradation of human serum IgG1, non-reducing Western blot; format: biochemical; details: 18 h at 37° C.
# T1 construct: Human serum and monoclonal human IgG1 were incubated in presence (+) or absence (−) of rIgdEagalactiae; from tissue; host or cells: human serum
# T1 sequence (P01857 1-330 isoform P01857-1): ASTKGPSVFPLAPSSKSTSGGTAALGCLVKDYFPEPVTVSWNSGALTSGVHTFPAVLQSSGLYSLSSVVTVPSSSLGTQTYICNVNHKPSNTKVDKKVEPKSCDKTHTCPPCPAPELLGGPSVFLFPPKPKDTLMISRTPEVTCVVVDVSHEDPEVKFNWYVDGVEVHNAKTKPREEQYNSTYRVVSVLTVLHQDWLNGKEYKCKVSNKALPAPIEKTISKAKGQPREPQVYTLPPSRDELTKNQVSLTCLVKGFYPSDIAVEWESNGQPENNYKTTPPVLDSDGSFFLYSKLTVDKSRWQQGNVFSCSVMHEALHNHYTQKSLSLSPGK
# Experimental: Human serum and monoclonal human IgG1 were incubated in presence (+) or absence (−) of rIgdEagalactiae for 18 h at 37° C. and analyzed by Western blot under non-reducing conditions with a human IgG-specific antibody.
# human IgG = experiment: IgG cleavage by IgdE, SDS-PAGE; format: biochemical; details: purified polyclonal IgG, reducing SDS-PAGE
# Experimental: as §1, §2, §3
# rabbit IgG = experiment: IgG cleavage by IgdE, SDS-PAGE; format: biochemical; details: purified polyclonal IgG
# equine IgG3 = experiment: Cleavage of recombinant equine IgG subtypes, SDS-PAGE; format: biochemical, horse; details: 0.6 μM, 16 h at 37° C., reducing SDS-PAGE
# Experimental: (§4) 0.6 μM recombinant equine IgG subtypes or serum IgG were incubated for 16 h at 37° C. with (+) or without (−) the soluble fraction of E. coli cells expressing rIgdEequi. Reactions were analyzed by SDS-PAGE under reducing conditions. […] SDS-PAGE was either stained with Coomassie Fluor Orange Protein Gel Stain (A) or subjected to Western blot (B) analyses with Rabbit Anti-Horse IgG H&L (HRP) ab6921.
# equine IgG1 = experiment: as above; format: biochemical, horse; details: 0.6 μM, 16 h at 37° C., reducing SDS-PAGE
# Experimental: as §4
# equine IgG5 = experiment: as above; format: biochemical, horse; details: 0.6 μM, 16 h at 37° C., reducing SDS-PAGE
# Experimental: as §4
# equine IgG6 = experiment: as above; format: biochemical, horse; details: 0.6 μM, 16 h at 37° C., reducing SDS-PAGE
# Experimental: as §4
# equine IgG7 = experiment: as above; format: biochemical, horse; details: 0.6 μM, 16 h at 37° C., reducing SDS-PAGE
# Experimental: as §4
# equine IgG4 = experiment: as above; format: biochemical, horse; details: 0.6 μM, 16 h at 37° C., reducing SDS-PAGE
# Experimental: as §4
# equine IgG2 = experiment: as above; format: biochemical, horse; details: 0.6 μM, 16 h at 37° C., reducing SDS-PAGE
# Experimental: as §4
# IgG in equine serum = experiment: Ig cleavage in equine serum, anti-IgG Western blot; format: biochemical, horse
# rat IgG = experiment: IgG cleavage by IgdE, SDS-PAGE; format: biochemical; details: purified polyclonal IgG
molecule,measurement,setting,value
B1,cleavage of monoclonal human IgG4,monoclonal human IgG4,No degradation product was observed
same,cleavage of monoclonal human IgG3,monoclonal human IgG3,No degradation product was observed
same,cleavage of monoclonal human IgG1 kappa (32 kDa degradation product),monoclonal human IgG1,cleaved
same,cleavage of monoclonal human IgG1 lambda (32 kDa degradation product),monoclonal human IgG1,cleaved
same,cleavage of monoclonal human IgG2,monoclonal human IgG2,No degradation product was observed
same,immunoglobulin specificity of the IgG degrading cysteine protease activity,IgG,"specific for human IgG, and specifically human IgG1"
same,cleavage of polyclonal porcine IgG (32 kDa degradation product),porcine IgG,No degradation product was observed
same,cleavage of polyclonal horse IgG,horse IgG,No degradation product was observed
same,cleavage of polyclonal cow IgG,cow IgG,No degradation product was observed
same,cleavage of polyclonal goat IgG,goat IgG,No degradation product was observed
same,cleavage of polyclonal mouse IgG,mouse IgG,No degradation product was observed
same,cleavage of IgG in human serum,IgG in human serum,cleaved IgG in human serum
same,degradation of human serum IgG1,human serum IgG1,degrades human serum IgG1 completely to single cleaved IgG1
same,cleavage of polyclonal human IgG (32 kDa degradation product),human IgG,cleaved
B2,cleavage of polyclonal rabbit IgG,rabbit IgG,No degradation product was observed
same,immunoglobulin specificity of the IgG degrading cysteine protease activity,IgG,"specific for equine IgG, and specifically equine IgG7"
same,cleavage of polyclonal porcine IgG (32 kDa degradation product),porcine IgG,No degradation product was observed
same,cleavage of recombinant equine IgG3,equine IgG3,No degradation product was observed
same,cleavage of recombinant equine IgG1,equine IgG1,No degradation product was observed
same,cleavage of recombinant equine IgG5,equine IgG5,No degradation product was observed
same,cleavage of recombinant equine IgG6,equine IgG6,No degradation product was observed
same,cleavage of recombinant equine IgG7 (32 kDa degradation product),equine IgG7,cleaved
same,cleavage of recombinant equine IgG4,equine IgG4,No degradation product was observed
same,cleavage of recombinant equine IgG2,equine IgG2,No degradation product was observed
same,cleavage of polyclonal horse IgG,horse IgG,cleaved
same,cleavage of polyclonal cow IgG,cow IgG,No degradation product was observed
same,cleavage of polyclonal goat IgG,goat IgG,No degradation product was observed
same,cleavage of polyclonal mouse IgG,mouse IgG,No degradation product was observed
same,cleavage of IgG in equine serum,IgG in equine serum,cleaved IgG in equine serum
same,cleavage of polyclonal rat IgG,rat IgG,No degradation product was observed
same,cleavage of polyclonal human IgG (32 kDa degradation product),human IgG,No degradation product was observed
